Data taken from patent CN109957013A.
Values joined by “and” are separate entries in the source; they are usually repeats but may differ in a detail not shown here. Equal values may be shown once.

Tests used:
H7N9病毒的血凝素HA (H7N9病毒) [1] = assay: ELISA, positive control well
H7N9病毒的血凝素HA (H7N9病毒) [2] = assay: ELISA of 293F supernatant with recombinant 7O2

For 阳性对照, the 450 (absorbance at 450 nm) (H7N9病毒的血凝素HA (H7N9病毒) [1]) was 1.15 (2×) and 1.21.

B1: 抗H7N9全人源单克隆抗体7O2 (antibody, V domains shown)
VH: EVQLVESGGGLVQPGGSLRLSCAASGFTFSSYWMHWVRQAPGKGLVWVSRINSDGSSTSYADSVKGRFTISRDNAKNTLYLQMNSLRAEDTAVYYCARRSKTGKFDPWGQGTLVTVSS
VL: SYELTQPPSVSVSPGQTARITCSGDALPKQYAYWYQQKPGQAPVLVIYKDSERPSGIPERFSGSSSGTTVTLTISGVQAEDEADYYCQSADSSGTLEVFGGGTKLTVLV
For B1, the 450 (absorbance at 450 nm) (H7N9病毒的血凝素HA (H7N9病毒) [2]) was 3 and 3.12 and 2.96.
